In PMC12775136 (2025):

Molecular target: T1, 3′hExofl (human, UniProt Q8IV48 1-349)
T1 chain: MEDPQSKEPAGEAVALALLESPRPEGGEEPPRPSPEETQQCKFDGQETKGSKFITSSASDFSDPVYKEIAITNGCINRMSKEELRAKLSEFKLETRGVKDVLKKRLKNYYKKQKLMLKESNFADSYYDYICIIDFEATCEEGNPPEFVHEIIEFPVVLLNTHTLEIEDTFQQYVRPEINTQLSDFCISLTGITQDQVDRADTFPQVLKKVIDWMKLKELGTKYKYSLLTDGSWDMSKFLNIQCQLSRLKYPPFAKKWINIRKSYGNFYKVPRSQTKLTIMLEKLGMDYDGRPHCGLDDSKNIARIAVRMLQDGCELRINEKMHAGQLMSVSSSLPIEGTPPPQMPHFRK
Assay: NMR

- Kd: 200 µM
B1: UPF2-AL (domain or fragment)
chain: NDKDSKDSMTEGENLEEDEEEEEGGAETEEQSGNESEVNEPEEEEGSDNDDDEGEEEEEENTDYLTDSNKENETDEENTEVMIKGGGLKH
